Experiment [1] addresses RBD-Fc (义翘神州，40592-V05H) (SARS-CoV-2) (UniProt P0DTC2).
Experiment [2] has the same target. The source holds these as a separate data set.

Our source for the IC50 values is CN114057887A.

Where two headings read alike, the source gives them in different places.

In the case of “hACE2-Fc融合蛋白 (人ACE2胞外区(ECD)与人IgG1的Fc片段的融合蛋白) (Fc fusion)”, the IC50 (in general, the point on the concentration scale where inhibition reaches its midpoint) in experiment [1] was determined as 7.6 nM; in experiment [2], 5.02 nM.
